The values that follow come from patent publication US20140179594A1, “STREPTOCOCCUS BACTERIOPHAGE LYSINS FOR TREATMENT OF GRAM POSITIVE BACTERIA IN COMPANION ANIMALS AND LIVESTOCK” (priority 2011, published 2014).

The subject of data set [1] is S. suis strain 7997. Briefly: PlySs2 lytic activity at various concentrations, OD600. The class given is cell-based, Streptococcus suis. The protocol: FIGS. 15A and 15B (A) PlySs2 has acute lytic activity against S. suis strain 7997 at, or above 8 ug/mL. (B) Activity of PlySs2 assessed in vitro against S. suis strain 5735.
(§1) Readings (OD600) were taken for each well in a spectrophotometer every minute over an hour. The OD density indicates the amount of bacterial cell growth in the microtiter well.
(§2) This activity test was first determined for the pathogenic S. suis strain 7997 with various concentrations of PlySs2 (FIG. 15A). Specific activity of purified PlySs2 lysin was also assessed in vitro against S. suis strain S735 (FIG. 15B). […] Additional results are tabulated below in TABLE 1.

Data set [2] relates to S. suis strain 7997. Briefly: PlySs2 storage stability, killing effectiveness. Type of data set: physicochemical, Streptococcus suis. How it is done:
FIG. 9. The stability of purified PlySS2 was determined by evaluating killing effectiveness against strain 7997 after storage at 37° C. for up to 48 hours in buffer.
FIG. 10. Killing effectiveness, assessed by OD600 growth of strain 7997 upon treatment with PlySs2 lysin after lysin storage at −80° C. for up to 7 months in buffer.
The stability of purified PlySs2 lysin was determined upon maintenance at 37° C. for up to 48 hours in buffer. The PlySs2 lysin is >90% stable up to 24 hours and maintains at least 50% activity after 48 hours.
Stability of the PlySS2 lysin was evaluated on freezer storage at −80° C. The PlySs2 lysin retains essentially 100% activity on storage in buffer for up to at least 7 months at −80° C. (FIG. 10).

In data set [3] the test system is purified S. suis peptidoglycan. Description: PlySs2 bond specificity, mass spectroscopy of digest. Type of data set: biochemical, Streptococcus suis. Conditions: overnight at 37° C. The protocol:
Investigations to determine the bond catalyzed by PlySs2 lysin have been undertaken. PlySs2 was incubated with purified S. suis peptidoglycan stripped of lipotechoic acid and carbohydrates overnight at 37° C. and the product submitted for mass spectroscopy.

Data set [4] concerns methicillin resistant Staphylococcus aureus strains (MRSA). Description: PlySs2 in vitro growth reduction and killing. The class given is cell-based. The protocol:
as §1, §2

Data set [5] relates to S. suis strain 7997. Description: PlySs2 biochemical characterization, OD600 turbidity.
In data set [6] the test system is vancomycin intermediate sensitivity Staphylococcus aureus (VISA). Description: PlySs2 in vitro test, standard MIC analysis. The class given is cell-based. The following applies: comparable in vitro tests (FIG. 18). The protocol:
(§3) FIG. 18. PlySS2 was tested by standard MIC analysis for its ability to kill strains of staphylococci. Included in the testing were resistant staphylococci such as Vancomycin resistant (VRSA), Vancomycin intermediate (VISA) and methicillin resistant (MRSA) staphylococci. The three VRSA strains tested represent half of all known isolates.

The test system of data set [7] is vancomycin resistant Staphylococcus aureus (VRSA). Briefly: PlySs2 in vitro test, standard MIC analysis. Type of data set: cell-based. The following applies: comparable in vitro tests (FIG. 18). The protocol:
as §3

For data set [8], the system named is cultures from the oral cavities of rats. Description: Oral cavity microbiota study, clearing zones on lawns. Type of data set: cell-based. Conditions: 6 cultures, 10 μL drops on BHI agar; the cleared culture confirmed as S. aureus.
The next data set deals with S. aureus MW2 and 8325. Briefly: Assessment of resistance, incrementally increasing concentrations. Type of data set: cell-based. The following applies: concentration doubled daily up to 4× MIC over an 8-day period.

A value given as a limit tells only on which side of the number the result lay.

B1: PlySs2: S. suis prophage lysin from strain 89/1591, amino acid sequence SEQ ID NO:3 (protein, listed as Streptococcus suis)
chain: MTTVNEALNNVRAQVGSGVSVGNGECYALASWYERMISPDATVGLGAGVGWVSGAIGDTISAKNIGSSYNWQANGWTVSTSGPFKAGQIVTLGATPGNPYGHVVIVEAVDGDRLTILEQNYGGKRYPVRNYYSAASYRQQVVHYITPPGTVAQSAPNLAGSRSYRETGTMTVTVDALNVRRAPNTSGEIVAVYKRGESFDYDTVIIDVNGYVWVSYIGGSGKRNYVATGATKDGKRFGNAWGTFK
Consider B1, for which the “concentration with acute lytic activity” value with S. suis strain 7997 [1] was ≥ 8 µg/mL. Also, the activity maintained result in the data set on S. suis strain 7997 [2] (37° C. in buffer, after 48 hours) was “at least 50%”. Also, in the data set on S. suis strain 7997 [2] (37° C. in buffer, up to 24 hours), the “stability of purified lysin” value was > 90%. For the same molecule, the “activity retained on freezer storage” value in the data set with S. suis strain 7997 [2] (−80° C. in buffer, up to at least 7 months) is reported as ~100%. Besides, the “bond catalyzed (cleavage type)” value in data set [3] is listed as “N-acetylmuramoyl,-L-alanine amidase”. Further, the “activity against MRSA strains” value in [4] was “reduction in growth and killing”. The “NaCl concentration of greatest activity” value in the data set with S. suis strain 7997 [5] (S. suis strain 7997) is on record as 0 mM. For the same molecule, the “pH up to which acute activity is shown” value in the data set with S. suis strain 7997 [5] (S. suis strain 7997, Bis-tris propane (BTP) buffer) is reported as ≤ 9.7. Also, in the data set with S. suis strain 7997 [5] (S. suis strain 7997, phosphate/citrate buffer), the “pH of strongest activity (optimal pH)” value was 8.0. Further, the “effectiveness against VISA strains” value in data set [6] is “similarly effective”. Also, the “effectiveness against VRSA strains” value in [7] is recorded as “similarly effective”. Moreover, the “clearing zone around PlySs2 drops on lawns of rat oral cavity cultures” value in data set [8] was “only appeared on one culture”. Besides, the “development of resistance (4-fold increase in MIC)” value in the data set on S. aureus MW2 and 8325 is given as “Neither S. aureus strain developed resistance”.
